This is an account of results in the supplement of paper PMC10724198.

± gives the standard deviation of the averaged measurements.

In data set [1] the test system is Saccharomyces cerevisiae. Put plainly: protein stability index of tFT-peptide fusion (C-terminal peptide) (PSI (0-1 scale)); higher = more stable (slower turnover). Here is the method: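 MPS profiling in S. cerevisiae of the tFT-X12 degron library: putative degron peptides plus stable controls, 12 aa, fused to the C-terminus of a sfGFP-mCherry timer. Cells are FACS-sorted into 8 mCherry/sfGFP bins and deep-sequenced. PSI runs from 0 (unstable) to 1 (stable). Backgrounds are wild type, das1Δ and doa10Δ at 30 °C, and wild type, das1Δ, cdc34-1 and cdc53-1 at 37 °C; 2-3 technical replicates each.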

Data set [2] relates to Saccharomyces cerevisiae. The data set is described as above. The note with it: genetic background: wild type; temperature: 30 C.
Where [3] appears, read: genetic background: cdc34-1, temperature: 37 C.
Setting [4] is: genetic background: cdc53-1, temperature: 37 C.
The mark [5] stands for this setting: genetic background: das1 deletion, temperature: 30 C.
Where [6] appears, read: genetic background: das1 deletion, temperature: 37 C.
Where [7] appears, read: genetic background: doa10 deletion, temperature: 30 C.
Where [8] appears, read: genetic background: wild type, temperature: 30 C.
The mark [9] stands for this setting: genetic background: wild type, temperature: 37 C.
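Further: PSI is a weighted mean of sequencing reads over stability bins, variants kept only with over 10 reads, mCherry proximal and sfGFP distal, peptide attached via GGGS linker.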

On to AAVQVCVLLLLL, for which the protein stability index amounted to 0.366 ± 0.029 in the data set on Saccharomyces cerevisiae [1] (setting [3]); 0.476 ± 0.032 in the data set on Saccharomyces cerevisiae [1] (setting [4]); 0.341 ± 0.037 in the data set with Saccharomyces cerevisiae [1] (setting [5]); 0.521 ± 0.014 with Saccharomyces cerevisiae [1] (setting [6]); 0.302 ± 0.0072 in the data set with Saccharomyces cerevisiae [1] (setting [7]); 0.337 ± 0.017 in the data set on Saccharomyces cerevisiae [1] (setting [8]). The figures for the protein stability index with Saccharomyces cerevisiae [1] (setting [9]) and with Saccharomyces cerevisiae [2] were 0.497 ± 0.014 and 0.414 ± 0.0057, respectively.

Take ACSRKPIWVTWL: the protein stability index in the data set on Saccharomyces cerevisiae [1] (setting [3]) was 0.666 ± 0.057; in the data set with Saccharomyces cerevisiae [1] (setting [4]) it was 0.747 ± 0.0079; in the data set on Saccharomyces cerevisiae [1] (setting [5]) it was 0.648 ± 0.023; with Saccharomyces cerevisiae [1] (setting [6]) it was 0.732 ± 0.016; with Saccharomyces cerevisiae [1] (setting [7]) it was 0.259 ± 0.0057; with Saccharomyces cerevisiae [1] (setting [8]) it was 0.276 ± 0.058. In addition, the protein stability index with Saccharomyces cerevisiae [1] (setting [9]) came out at 0.51 ± 0.031; in the data set on Saccharomyces cerevisiae [2] it was 0.35 ± 0.065.

Regarding AFLLVLFCCVSC, the protein stability index with Saccharomyces cerevisiae [1] (setting [3]) was 0.241 ± 0.044; in the data set on Saccharomyces cerevisiae [1] (setting [4]) it was 0.258 ± 0.0057; in the data set on Saccharomyces cerevisiae [1] (setting [5]), 0.252 ± 0.023; in the data set on Saccharomyces cerevisiae [1] (setting [6]) it was 0.3459 ± 0.0017; in the data set on Saccharomyces cerevisiae [1] (setting [7]) it was 0.229 ± 0.0086; in the data set with Saccharomyces cerevisiae [1] (setting [8]), 0.225 ± 0.023. Moreover, the protein stability index with Saccharomyces cerevisiae [1] (setting [9]) amounted to 0.303 ± 0.01; with Saccharomyces cerevisiae [2] it was 0.298 ± 0.018.

Consider AFLWSLFVFFRF, for which the protein stability index in the data set with Saccharomyces cerevisiae [1] (setting [3]) amounted to 0.254 ± 0.056; with Saccharomyces cerevisiae [1] (setting [4]) it was 0.183 ± 0.0084; in the data set on Saccharomyces cerevisiae [1] (setting [5]), 0.31 ± 0.035; in the data set with Saccharomyces cerevisiae [1] (setting [6]) it was 0.355 ± 0.0011; in the data set with Saccharomyces cerevisiae [1] (setting [7]), 0.421 ± 0.017; in the data set on Saccharomyces cerevisiae [1] (setting [8]), 0.269 ± 0.042. In addition, the protein stability index with Saccharomyces cerevisiae [1] (setting [9]) stood at 0.363 ± 0.018; in the data set on Saccharomyces cerevisiae [2], 0.393 ± 0.085.

Take AFVVPLFLCCCG: the protein stability index with Saccharomyces cerevisiae [1] (setting [3]) was determined as 0.1836 ± 0.0015; with Saccharomyces cerevisiae [1] (setting [4]), 0.165 ± 0.013; in the data set on Saccharomyces cerevisiae [1] (setting [5]) it was 0.212 ± 0.025; with Saccharomyces cerevisiae [1] (setting [6]) it was 0.2768 ± 0.0025; in the data set with Saccharomyces cerevisiae [1] (setting [7]), 0.184 ± 0.014; with Saccharomyces cerevisiae [1] (setting [8]), 0.209 ± 0.014. Further, the figures for the protein stability index in the data set on Saccharomyces cerevisiae [1] (setting [9]) and in the data set on Saccharomyces cerevisiae [2] were 0.235 ± 0.0042 and 0.255 ± 0.0048, respectively.

AFYLCLYFMPVS: the protein stability index amounted to 0.454 ± 0.026 in the data set on Saccharomyces cerevisiae [1] (setting [3]); 0.548 ± 0.036 with Saccharomyces cerevisiae [1] (setting [4]); 0.371 ± 0.028 with Saccharomyces cerevisiae [1] (setting [5]); 0.503 ± 0.012 with Saccharomyces cerevisiae [1] (setting [6]); 0.358 ± 0.032 in the data set with Saccharomyces cerevisiae [1] (setting [7]); 0.367 ± 0.029 with Saccharomyces cerevisiae [1] (setting [8]). Moreover, the protein stability index in the data set with Saccharomyces cerevisiae [1] (setting [9]) turned out to be 0.52 ± 0.0093; with Saccharomyces cerevisiae [2], 0.4375 ± 0.0033.

Consider AGAFRIVWWALR, for which the protein stability index was found to be 0.652 ± 0.034 in the data set on Saccharomyces cerevisiae [1] (setting [3]); 0.6935 ± 0.00096 in the data set on Saccharomyces cerevisiae [1] (setting [4]); 0.578 ± 0.027 with Saccharomyces cerevisiae [1] (setting [5]); 0.711 ± 0.0098 in the data set with Saccharomyces cerevisiae [1] (setting [6]); 0.586 ± 0.02 in the data set with Saccharomyces cerevisiae [1] (setting [7]); 0.578 ± 0.015 with Saccharomyces cerevisiae [1] (setting [8]). Besides, the protein stability index in the data set on Saccharomyces cerevisiae [1] (setting [9]) stood at 0.68 ± 0.014; with Saccharomyces cerevisiae [2], 0.528 ± 0.073.

In the case of ALFLLWVVMHDV, the protein stability index came out at 0.2376 ± 0.0022 in the data set on Saccharomyces cerevisiae [1] (setting [3]); 0.337 ± 0.021 with Saccharomyces cerevisiae [1] (setting [4]); 0.247 ± 0.036 with Saccharomyces cerevisiae [1] (setting [5]); 0.421 ± 0.018 in the data set with Saccharomyces cerevisiae [1] (setting [6]); 0.195 ± 0.024 with Saccharomyces cerevisiae [1] (setting [7]); 0.219 ± 0.035 in the data set with Saccharomyces cerevisiae [1] (setting [8]). Further, the figures for the protein stability index in the data set with Saccharomyces cerevisiae [1] (setting [9]) and with Saccharomyces cerevisiae [2] were 0.397 ± 0.022 and 0.343 ± 0.011, respectively.

As to ALLWEFVPCSVR, the protein stability index in the data set on Saccharomyces cerevisiae [1] (setting [3]) was 0.521 ± 0.032; in the data set with Saccharomyces cerevisiae [1] (setting [4]), 0.52 ± 0.0073; in the data set with Saccharomyces cerevisiae [1] (setting [5]), 0.354 ± 0.036; with Saccharomyces cerevisiae [1] (setting [6]) it was 0.56 ± 0.0061; in the data set with Saccharomyces cerevisiae [1] (setting [7]), 0.3287 ± 0.0015; with Saccharomyces cerevisiae [1] (setting [8]), 0.375 ± 0.022. In addition, the values for the protein stability index in the data set with Saccharomyces cerevisiae [1] (setting [9]) and in the data set with Saccharomyces cerevisiae [2] were 0.5347 ± 0.0023 and 0.453 ± 0.015, respectively.

Regarding ALRGLWFPFSCL, the protein stability index in the data set on Saccharomyces cerevisiae [1] (setting [3]) stood at 0.66 ± 0.023; with Saccharomyces cerevisiae [1] (setting [4]) it was 0.765 ± 0.0018; in the data set with Saccharomyces cerevisiae [1] (setting [5]) it was 0.68 ± 0.024; in the data set on Saccharomyces cerevisiae [1] (setting [6]) it was 0.8093 ± 0.0029; in the data set on Saccharomyces cerevisiae [1] (setting [7]), 0.168 ± 0.032; with Saccharomyces cerevisiae [1] (setting [8]), 0.193 ± 0.028. Moreover, the protein stability index in the data set on Saccharomyces cerevisiae [1] (setting [9]) was found to be 0.283 ± 0.01; in the data set on Saccharomyces cerevisiae [2] it was 0.393 ± 0.022.

Turning to ALRLPPPPFSLY, the protein stability index in the data set on Saccharomyces cerevisiae [1] (setting [3]) worked out at 0.677 ± 0.045; in the data set with Saccharomyces cerevisiae [1] (setting [4]), 0.757 ± 0.025; with Saccharomyces cerevisiae [1] (setting [5]) it was 0.561 ± 0.05; in the data set on Saccharomyces cerevisiae [1] (setting [6]), 0.72 ± 0.035; in the data set with Saccharomyces cerevisiae [1] (setting [7]), 0.174 ± 0.0065; in the data set with Saccharomyces cerevisiae [1] (setting [8]) it was 0.237 ± 0.036. The protein stability index in the data set with Saccharomyces cerevisiae [1] (setting [9]) worked out at 0.461 ± 0.023.

For the sequence ALSGLARFIVCH, the protein stability index amounted to 0.308 ± 0.0074 in the data set with Saccharomyces cerevisiae [1] (setting [3]); 0.358 ± 0.019 in the data set on Saccharomyces cerevisiae [1] (setting [4]); 0.272 ± 0.043 in the data set with Saccharomyces cerevisiae [1] (setting [5]); 0.4268 ± 0.0034 in the data set with Saccharomyces cerevisiae [1] (setting [6]); 0.2054 ± 0.0015 with Saccharomyces cerevisiae [1] (setting [7]); 0.243 ± 0.031 in the data set on Saccharomyces cerevisiae [1] (setting [8]). The protein stability index with Saccharomyces cerevisiae [1] (setting [9]) amounted to 0.392 ± 0.016; with Saccharomyces cerevisiae [2], 0.428 ± 0.026.

Take ALVGEVLWFQLV: the protein stability index with Saccharomyces cerevisiae [1] (setting [3]) was determined as 0.684 ± 0.039; in the data set on Saccharomyces cerevisiae [1] (setting [4]), 0.7569 ± 0.006; with Saccharomyces cerevisiae [1] (setting [5]) it was 0.651 ± 0.023; in the data set with Saccharomyces cerevisiae [1] (setting [6]), 0.749 ± 0.013; in the data set with Saccharomyces cerevisiae [1] (setting [7]), 0.317 ± 0.0039; with Saccharomyces cerevisiae [1] (setting [8]), 0.357 ± 0.034. The protein stability index with Saccharomyces cerevisiae [1] (setting [9]) worked out at 0.586 ± 0.029; in the data set with Saccharomyces cerevisiae [2], 0.471 ± 0.0021.

Regarding APLLPPALALTC, the protein stability index with Saccharomyces cerevisiae [1] (setting [3]) turned out to be 0.533 ± 0.029; with Saccharomyces cerevisiae [1] (setting [4]), 0.516 ± 0.038; in the data set with Saccharomyces cerevisiae [1] (setting [5]), 0.389 ± 0.034; in the data set with Saccharomyces cerevisiae [1] (setting [6]), 0.5268 ± 0.0035; with Saccharomyces cerevisiae [1] (setting [7]), 0.3512 ± 0.00062; in the data set with Saccharomyces cerevisiae [1] (setting [8]), 0.407 ± 0.028. The values for the protein stability index with Saccharomyces cerevisiae [1] (setting [9]) and with Saccharomyces cerevisiae [2] were 0.484 ± 0.02 and 0.505 ± 0.025, respectively.

Regarding APPSFPPLLLLS, the protein stability index with Saccharomyces cerevisiae [1] (setting [3]) worked out at 0.664 ± 0.028; in the data set with Saccharomyces cerevisiae [1] (setting [4]), 0.697 ± 0.038; with Saccharomyces cerevisiae [1] (setting [5]), 0.6054 ± 0.002; in the data set with Saccharomyces cerevisiae [1] (setting [6]), 0.71 ± 0.016; in the data set with Saccharomyces cerevisiae [1] (setting [7]) it was 0.254 ± 0.018; in the data set with Saccharomyces cerevisiae [1] (setting [8]) it was 0.286 ± 0.017. Also, in the data set with Saccharomyces cerevisiae [1] (setting [9]), the protein stability index came out at 0.499 ± 0.034.

Turning to AQCRGGGLSGVG, the protein stability index in the data set on Saccharomyces cerevisiae [1] (setting [3]) stood at 0.572 ± 0.023; in the data set with Saccharomyces cerevisiae [1] (setting [4]) it was 0.6409 ± 0.0041; in the data set on Saccharomyces cerevisiae [1] (setting [5]) it was 0.566 ± 0.016; in the data set with Saccharomyces cerevisiae [1] (setting [6]), 0.615 ± 0.014; with Saccharomyces cerevisiae [1] (setting [7]), 0.57 ± 0.013; in the data set with Saccharomyces cerevisiae [1] (setting [8]), 0.562 ± 0.011. In addition, in the data set on Saccharomyces cerevisiae [1] (setting [9]), the protein stability index came out at 0.603 ± 0.02.

Take ARGVAAAFVSGF: the protein stability index with Saccharomyces cerevisiae [1] (setting [3]) was 0.696 ± 0.043; in the data set with Saccharomyces cerevisiae [1] (setting [4]) it was 0.7725 ± 0.0057; with Saccharomyces cerevisiae [1] (setting [5]), 0.657 ± 0.03; in the data set on Saccharomyces cerevisiae [1] (setting [6]) it was 0.746 ± 0.016; in the data set with Saccharomyces cerevisiae [1] (setting [7]) it was 0.661 ± 0.023; in the data set on Saccharomyces cerevisiae [1] (setting [8]), 0.653 ± 0.0078. The protein stability index was 0.725 ± 0.03 with Saccharomyces cerevisiae [1] (setting [9]) and 0.595 ± 0.23 in the data set on Saccharomyces cerevisiae [2].
